Positions count from the first letter of the chain named. Read-outs that look alike come from different tables or passages of the source.
T1: human CD22, endogenous on Raji cells (human, UniProt P20273 20-847)
T1 construct: whole, on cells; Endogenous protein of the Raji cell line
T1 sequence (looked up): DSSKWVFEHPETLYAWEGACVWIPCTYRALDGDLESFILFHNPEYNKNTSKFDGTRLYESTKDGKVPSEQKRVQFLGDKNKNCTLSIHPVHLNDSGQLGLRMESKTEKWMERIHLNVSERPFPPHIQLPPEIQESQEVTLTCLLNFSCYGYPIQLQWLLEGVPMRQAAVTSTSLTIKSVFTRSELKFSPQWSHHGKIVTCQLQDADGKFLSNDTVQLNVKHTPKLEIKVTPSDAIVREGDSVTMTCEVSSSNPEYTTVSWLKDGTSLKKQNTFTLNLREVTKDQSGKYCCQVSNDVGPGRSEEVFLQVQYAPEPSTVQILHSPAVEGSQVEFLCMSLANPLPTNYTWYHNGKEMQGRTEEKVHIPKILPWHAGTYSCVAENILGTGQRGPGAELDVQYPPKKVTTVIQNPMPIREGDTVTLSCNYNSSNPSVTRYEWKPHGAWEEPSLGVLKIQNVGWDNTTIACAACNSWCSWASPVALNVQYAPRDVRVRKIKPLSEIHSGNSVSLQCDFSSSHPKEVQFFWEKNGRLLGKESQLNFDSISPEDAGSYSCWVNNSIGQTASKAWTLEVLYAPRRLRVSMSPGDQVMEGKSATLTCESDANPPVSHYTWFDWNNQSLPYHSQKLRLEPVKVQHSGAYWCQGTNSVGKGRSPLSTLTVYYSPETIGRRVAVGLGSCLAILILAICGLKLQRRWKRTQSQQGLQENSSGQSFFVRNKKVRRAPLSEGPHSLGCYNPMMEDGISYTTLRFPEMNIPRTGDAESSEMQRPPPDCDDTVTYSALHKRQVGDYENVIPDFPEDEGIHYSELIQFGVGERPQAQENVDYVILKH

T2: murine CD22 protein (ACROBiosystems, SI2-M52Ha) (murine, UniProt P35329 22-708)
T2 construct: extracellular domain; also called murine CD22-ECD; murine CD22-ECD-His
T2 sequence (looked up): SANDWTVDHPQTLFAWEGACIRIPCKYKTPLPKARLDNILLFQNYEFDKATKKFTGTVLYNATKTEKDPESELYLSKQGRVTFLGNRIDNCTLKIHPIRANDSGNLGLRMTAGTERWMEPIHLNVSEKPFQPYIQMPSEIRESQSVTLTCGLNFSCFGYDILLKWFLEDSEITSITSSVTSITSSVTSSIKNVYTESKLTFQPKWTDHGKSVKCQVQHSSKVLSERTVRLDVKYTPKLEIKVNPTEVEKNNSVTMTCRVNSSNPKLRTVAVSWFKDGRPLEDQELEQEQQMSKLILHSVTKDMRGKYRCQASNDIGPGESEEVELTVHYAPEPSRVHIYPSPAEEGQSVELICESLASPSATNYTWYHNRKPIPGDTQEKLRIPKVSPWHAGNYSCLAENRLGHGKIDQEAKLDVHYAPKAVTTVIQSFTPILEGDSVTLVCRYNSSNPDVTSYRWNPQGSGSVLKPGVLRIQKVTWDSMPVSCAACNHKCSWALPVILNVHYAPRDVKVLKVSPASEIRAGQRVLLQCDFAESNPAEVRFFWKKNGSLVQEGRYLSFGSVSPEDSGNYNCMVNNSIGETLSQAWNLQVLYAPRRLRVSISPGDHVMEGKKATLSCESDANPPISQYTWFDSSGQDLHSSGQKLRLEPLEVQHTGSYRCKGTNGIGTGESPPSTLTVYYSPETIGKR

T3: human CD22, full length, on CHO-K1-human CD22 2C4 cells (human, UniProt P20273 20-847)
T3 construct: Full-length human CD22 (NCBI NP_001762.2) stably transfected into CHO-K1
T3 sequence: T1 sequence (looked up)

B1: F2.70.2 human-murine chimeric antibody (antibody, human IgG1, lambda, V domains shown)
VH: EVQLVESGGGLVKPGGSLKLSCAASGFTFSDYGMNWFRQAPEKGLEWVAYISRGSHTIYYADTVKGRFTISRDNAKNTLFLQMTSLRSNDTAMYYCVRMAGYYAMDYWGQGTSVTVSS
VL: QLVLTQSSSASFSLGASAKLTCTLSSQHSSYIIEWYQQQPLKPPKYVMELKKDGSHSTGDGIPDRFSGSSSGADRYLSISNIQPEDEAIYICGVGDTIKEQFVYVFGGGTKVTVLG
notes: Chimeric, human IgG1 / lambda
B2: F2.180.16 human-murine chimeric antibody (antibody, human IgG1, lambda, V domains shown)
VH: EVKLVESGGGLVLPGGSLKISCAASGFTFSDYYMYWIRQTPDKRLEWVAYISNTGYSTFYPDSVKGRFTVSRDNAKNTLYLQMSRLQSEDTAMYYCARHGILYAMDYWGQGTSVTVSS
VL: B1 VL with L2P, H28Y, S30T, I32T, E34G, K52H, H56R, S57H, I89T, V103M
notes: Chimeric, human IgG1 / lambda
B3: F2.173.9 human-murine chimeric antibody (antibody, human IgG1, lambda, V domains shown)
VH: EVQLVESGGDLVKPGESLKLSCEASGFTFSNYAMSWVRQTPDRRLEWVATISSIGSFTYYSDSVKGRFTISRDNVKSTLHLQMNNLKSGDTAIYFCARLGVYFDSWGQGTTLTVSS
VL: B1 VL with S30T, I32T, L41H, Y46F, L50I, S57Y, A88T, G95S, T97M, E100D
notes: Chimeric, human IgG1 / lambda
B4: F2.104.10 human-murine chimeric antibody (antibody, human IgG1, lambda, V domains shown)
VH: B1 VH with L11F, K76E, V114L
VL: B1 VL with L50V, P84S
notes: Chimeric, human IgG1 / lambda
B5: HA22-hIgG1 (antibody, V domains shown)
VH: EVQLVESGGGLVKPGGSLKLSCAASGFAFSIYDMSWVRQTPEKCLEWVAYISSGGGTTYYPDTVKGRFTISRDNAKNTLYLQMSSLKSEDTAMYYCARHSGYGTHWGVLFAYWGQGTLVTVSA
VL: DIQMTQTTSSLSASLGDRVTISCRASQDISNYLNWYQQKPDGTVKLLIYYTSILHSGVPSRFSGSGSGTDYSLTISNLEQEDFATYFCQQGNTLPWTFGCGTKLEIKR
B6: F2.121.9 human-murine chimeric antibody (antibody, human IgG1, lambda, V domains shown)
VH: EVQLVESGGGLVKPGGSLKLSCAASGFTFSDYVMSWIRQTPEKRLEWVATISDAGSYTFYPDNLKGRFTISRDNAKNNLYLQMNHLTSEDTAFYYCAIIYFGNYGGYWGQGTLVTVSV
VL: QAVVTQESALTTSPGGTVVLTCRSNTGAVTTSNYANWVQEKPDHLFTGLIGGTSNRAPGVPVRFSGSLIGDKAALTITGAQTEDDAMYFCALWYSTHWVFGGGTKLTVLG
notes: Chimeric, human IgG1 / lambda

Experiments:
[1] = molecular target: T1, human CD22, endogenous on Raji cells; assay: FACS, Raji cells
Source text: (§1) The required cells were scale-up cultured in a T-75 cell culture flask to the logarithmic growth phase. For the adherent cell CHO-K1, the medium was aspirated, the cells were washed 2 times with PBS buffer, and then digested with trypsin. After the digestion was terminated, the cells were washed 2 times with PBS buffer. For suspension cell Raji, the medium supernatant was directly centrifuged and discarded, and the cell pellet was washed 2 times with PBS. After counting the cells in the previous step, the cell pellet was resuspended with [PBS+2% (w/w) BSA] blocking solution to 2×10⁶ cells/ml, and added to a 96-well FACS reaction plate at 50 μl/well, and then the chimeric antibody test sample was added at 50 μl/well, and incubated on ice for 2 hours. The mixture was centrifuged and washed 3 times with PBS buffer, Alexa Flour 488-labeled secondary antibody (purchased from Invitrogen, catalog number: A-11013) was added at 50 μl/well, and incubated on ice for 1 hour. The obtained mixture was centrifuged and washed 5 times with PBS, and FACS (FACS Canto™, purchased from BD Company) was used for detection and result analysis. Data analysis was performed by software (CellQuest) to obtain the mean fluorescence density (MFI)of the cells. And then software (GraphPad Prism8) was used for analysis, data fitting, and EC50 value calculation. […] The same method was used to detect the binding of the chimeric antibodies to endogenous CD22-negative cell MoLT4 cells (purchased from ATCC, CRL-1582) and CHO-K1 cells.

[2] = molecular target: T2, murine CD22 protein (ACROBiosystems, …); assay: ELISA, coated murine CD22, 0.01 nM Ab
Outline: (§2)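 Direct ELISA: chimeric antibody binding to CD22 coated at 2 μg/mL, with a 37° C, 2 h antibody step and HRP/TMB detection.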

[3] = molecular target: T3, human CD22, full length, on …; assay: FACS, CHO-K1-human CD22 2C4 cells
Source text: as §1

[4] = molecular target: T2, murine CD22 protein (ACROBiosystems, …); assay: ELISA, coated murine CD22, 100 nM Ab
Outline: as §2

[5] = molecular target: T2, murine CD22 protein (ACROBiosystems, …); assay: ELISA, coated murine CD22, 0.0001 nM Ab
Outline: as §2

[6] = molecular target: T2, murine CD22 protein (ACROBiosystems, …); assay: ELISA, coated murine CD22, 0.1 nM Ab
Outline: as §2

[7] = molecular target: T2, murine CD22 protein (ACROBiosystems, …); assay: ELISA, coated murine CD22, 0.001 nM Ab
Outline: as §2

[8] = molecular target: T2, murine CD22 protein (ACROBiosystems, …); assay: ELISA, coated murine CD22, 0.00001 nM Ab
Outline: as §2

[9] = molecular target: T2, murine CD22 protein (ACROBiosystems, …); assay: ELISA, coated murine CD22, 10 nM Ab
Outline: as §2

[10] = molecular target: T1, human CD22, endogenous on Raji cells; assay: FACS, Raji cells; remark: listed apart in the source
Outline: (§3)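 Raji cells and CHO-K1 cells expressing human CD22 were blocked in PBS + 2% BSA at 2×10⁶ cells/ml and incubated with chimeric antibody for 2 h on ice. Bound antibody was detected with an Alexa Fluor 488 secondary for 1 h on ice and read by flow cytometry as MFI. EC50 came from curve fitting.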

[11] = molecular target: T3, human CD22, full length, on …; assay: FACS, CHO-K1-human CD22 2C4 cells; remark: listed apart in the source
Outline: as §3

Binder | EC50 [1] [nM] | Maximum mean fluorescence intensity [1] [MFI] | OD450 [2] [OD450] | EC50 [3] [nM] | Maximum mean fluorescence intensity [3] [MFI] | OD450 [4] [OD450] | OD450 [5] [OD450] | OD450 [6] [OD450] | OD450 [7] [OD450] | OD450 [8] [OD450] | OD450 [9] [OD450] | EC50 [10] [nM] | Maximum mean fluorescence intensity [10] [MFI] | EC50 [11] [nM] | Maximum mean fluorescence intensity [11] [MFI]
B1 | 0.35 | 16600 | 0.06 | 0.76 | 39000 | 0.1 | 0.06 | 0.06 | 0.06 | 0.06 | 0.07 |  |  |  | 
B2 | 0.88 | 15700 | 0.05 | 1.63 | 34400 | 0.05 | 0.07 | 0.05 | 0.05 | 0.06 | 0.06 |  |  |  | 
B3 | 0.84 | 18900 | 0.05 | 1.23 | 40300 | 0.09 | 0.05 | 0.05 | 0.05 | 0.06 | 0.06 |  |  |  | 
B4 | 0.4 | 16300 | 0.07 | 0.88 | 40600 | 0.07 | 0.06 | 0.06 | 0.06 | 0.05 | 0.07 |  |  |  | 
B5 | 0.71 | 19700 | 0.06 | 1.1 | 43400 | 0.1 | 0.06 | 0.06 | 0.05 | 0.06 | 0.07 | 0.29 | 25000 | 0.81 | 32700
B6 | 0.86 | 18900 | 0.05 | 1.09 | 39700 | 0.06 | 0.06 | 0.05 | 0.06 | 0.06 | 0.06 |  |  |  | 

— US20240084003A1 (SIMCERE ZAIMING PHARMACEUTICAL, published 2024)
